# Test results published in US20240228596A1 (VIB VZW, published 2024).
# B1: VHH72_h1_S56A (VHH)
# VHH: EVQLVESGGGLVQPGGSLRLSCAASGRTFSEYAMGWFRQAPGKEREFVATISWSGGATYYTDSVKGRFTISRDNAKNTVYLQMNSLRPEDTAVYYCAAAGLGTVVSEWDYDYDYWGQGTLVTVSS
# Molecular target: SARS-COV-1 spike protein on VSV-delG pseudotyped particles (SARS-COV-1, UniProt P59594 14-1255)
# Experiment: cell-based or functional assay
binder,measurement,value
B1,IC50 Mean VSV-dG-spike SARS-COV-1,0.013 µg/mL
